The record followed here is US20090221691A1 (UNIVERSITY OF ROCHESTER, published 2009).

In general, koff refers to the rate constant with which the complex falls apart. A lower koff goes with slow dissociation.

Experiment [1] concerns the target biotinylated Gβ1γ2 mutant Arg314Ala (rat) (UniProt P54311). Nature of the experiment: flow cytometry, dissociation of Fαi1 from immobilized b-β1γ2. In general terms: In flow cytometry, cells or beads pass a laser one at a time.
Experiment [2] concerns the target biotinylated Gβ1γ2 mutant Asn230Ala (rat) (UniProt P54311). The description is as above.
Experiment [3] has as its target biotinylated Gβ1γ2 mutant Asp186Ala (rat) (UniProt P54311). The experiment is described as above.
In experiment [4] the target is biotinylated Gβ1γ2 mutant Leu117Ala (rat) (UniProt P54311). The description is as above.
Sequence of biotinylated Gβ1γ2 mutant Leu117Ala (rat) (P54311 whole entry L117A, chain 1 of 2): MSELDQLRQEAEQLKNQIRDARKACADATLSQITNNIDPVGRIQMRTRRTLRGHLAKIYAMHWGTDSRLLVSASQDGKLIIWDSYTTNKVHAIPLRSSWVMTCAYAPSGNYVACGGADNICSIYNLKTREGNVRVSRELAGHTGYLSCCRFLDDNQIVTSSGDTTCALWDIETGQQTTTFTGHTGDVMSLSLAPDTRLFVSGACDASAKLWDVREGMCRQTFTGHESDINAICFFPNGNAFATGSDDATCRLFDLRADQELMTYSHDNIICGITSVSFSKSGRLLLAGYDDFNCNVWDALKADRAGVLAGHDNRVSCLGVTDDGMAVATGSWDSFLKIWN
Sequence of biotinylated Gβ1γ2 mutant Leu117Ala (rat) (P63212 2-68, chain 2 of 2, further chain): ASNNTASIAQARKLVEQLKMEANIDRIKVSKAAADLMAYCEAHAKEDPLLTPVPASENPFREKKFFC
The target in experiment [5] is biotinylated Gβ1γ2 mutant Lys57Ala (rat) (UniProt P54311). The description is as above.
Sequence of biotinylated Gβ1γ2 mutant Lys57Ala (rat) (P54311 whole entry K57A, chain 1 of 2): as the sequence (P54311 whole entry L117A, chain 1 of 2) above, with K57A, A117L counted along it
Sequence of biotinylated Gβ1γ2 mutant Lys57Ala (rat) (P63212 2-68, chain 2 of 2, further chain): as the sequence (P63212 2-68, chain 2 of 2, further chain) above
Experiment [6] has as its target biotinylated Gβ1γ2 mutant Met101Ala (rat) (UniProt P54311). The experiment is described as above.
In experiment [7] the target is biotinylated Gβ1γ2 mutant Met188Ala (rat) (UniProt P54311). Described as above.
Sequence of biotinylated Gβ1γ2 mutant Met188Ala (rat) (P54311 whole entry M188A, chain 1 of 2): as the sequence (P54311 whole entry L117A, chain 1 of 2) above, with A117L, M188A counted along it
Sequence of biotinylated Gβ1γ2 mutant Met188Ala (rat) (P63212 2-68, chain 2 of 2, further chain): as the sequence (P63212 2-68, chain 2 of 2, further chain) above
Experiment [8] concerns the target biotinylated Gβ1γ2 mutant Trp332Ala (rat) (UniProt P54311). The experiment is described as above.
The target in experiment [9] is biotinylated Gβ1γ2 mutant Trp99Ala (rat) (UniProt P54311). The description is as above.
The target of experiment [10] is biotinylated Gβ1γ2 mutant Tyr145Ala (rat) (UniProt P54311). Described as above.
Sequence of biotinylated Gβ1γ2 mutant Tyr145Ala (rat) (P54311 whole entry Y145A, chain 1 of 2): as the sequence (P54311 whole entry L117A, chain 1 of 2) above, with A117L, Y145A counted along it
Sequence of biotinylated Gβ1γ2 mutant Tyr145Ala (rat) (P63212 2-68, chain 2 of 2, further chain): as the sequence (P63212 2-68, chain 2 of 2, further chain) above
For experiment [11], the target named is biotinylated Gβ1γ2 mutant Tyr59Ala (rat) (UniProt P54311). The description is as above.
Sequence of biotinylated Gβ1γ2 mutant Tyr59Ala (rat) (P54311 whole entry Y59A, chain 1 of 2): as the sequence (P54311 whole entry L117A, chain 1 of 2) above, with Y59A, A117L counted along it
Sequence of biotinylated Gβ1γ2 mutant Tyr59Ala (rat) (P63212 2-68, chain 2 of 2, further chain): as the sequence (P63212 2-68, chain 2 of 2, further chain) above
Experiment [12] concerns the target biotinylated Gβ1γ2, wild-type (BAP-rat Gβ1 with Gγ2) (rat) (UniProt P54311). Described as above.
In experiment [13] the target is biotinylated Gβ1γ2 mutant Arg314Ala (rat) (UniProt P54311). Nature of the experiment: phage ELISA, % of wild-type b-βγ. For orientation: An ELISA detects its analyte on a solid surface through an enzyme-linked reagent.
The target of experiment [14] is biotinylated Gβ1γ2 mutant Asn230Ala (rat) (UniProt P54311). As to the kind of experiment: phage ELISA, % of wild-type b-βγ.
Sequence of biotinylated Gβ1γ2 mutant Asn230Ala (rat) (P54311 whole entry N230A, chain 1 of 2): as the sequence (P54311 whole entry L117A, chain 1 of 2) above, with A117L, N230A counted along it
Sequence of biotinylated Gβ1γ2 mutant Asn230Ala (rat) (P63212 2-68, chain 2 of 2, further chain): as the sequence (P63212 2-68, chain 2 of 2, further chain) above
Experiment [15] concerns the target biotinylated Gβ1γ2 mutant Asp186Ala (rat) (UniProt P54311). As to the kind of experiment: phage ELISA, % of wild-type b-βγ.
Experiment [16] deals with biotinylated Gβ1γ2 mutant Asp246Ser (rat) (UniProt P54311). As to the kind of experiment: phage ELISA, % of wild-type b-βγ.
Sequence of biotinylated Gβ1γ2 mutant Asp246Ser (rat) (P54311 whole entry D246S, chain 1 of 2): as the sequence (P54311 whole entry L117A, chain 1 of 2) above, with A117L, D246S counted along it
Sequence of biotinylated Gβ1γ2 mutant Asp246Ser (rat) (P63212 2-68, chain 2 of 2, further chain): as the sequence (P63212 2-68, chain 2 of 2, further chain) above
Experiment [17] has as its target biotinylated Gβ1γ2 mutant His311Ala (rat) (UniProt P54311). As to the kind of experiment: phage ELISA, % of wild-type b-βγ.
Experiment [18] deals with biotinylated Gβ1γ2 mutant Leu117Ala (rat) (UniProt P54311). Nature of the experiment: phage ELISA, % of wild-type b-βγ.
Experiment [19] concerns the target biotinylated Gβ1γ2 mutant Lys57Ala (rat) (UniProt P54311). As to the kind of experiment: phage ELISA, % of wild-type b-βγ.
Experiment [20] addresses biotinylated Gβ1γ2 mutant Met101Ala (rat) (UniProt P54311). As to the kind of experiment: phage ELISA, % of wild-type b-βγ.
For experiment [21], the target named is biotinylated Gβ1γ2 mutant Met188Ala (rat) (UniProt P54311). As to the kind of experiment: phage ELISA, % of wild-type b-βγ.
Experiment [22] deals with biotinylated Gβ1γ2 mutant Trp332Ala (rat) (UniProt P54311). Nature of the experiment: phage ELISA, % of wild-type b-βγ.
In experiment [23] the target is biotinylated Gβ1γ2 mutant Trp99Ala (rat) (UniProt P54311). Nature of the experiment: phage ELISA, % of wild-type b-βγ.
In experiment [24] the target is biotinylated Gβ1γ2 mutant Tyr145Ala (rat) (UniProt P54311). As to the kind of experiment: phage ELISA, % of wild-type b-βγ.
Experiment [25] deals with biotinylated Gβ1γ2 mutant Tyr59Ala (rat) (UniProt P54311). Nature of the experiment: phage ELISA, % of wild-type b-βγ.
For experiment [26], the target named is T1, biotinylated Gβ1γ2, wild-type (BAP-rat Gβ1 with Gγ2) (rat, UniProt P54311 1-340; P63212 2-68, biotin on the lysine acceptor residue of the BAP).
T1 construct: immobilized on streptavidin in the assays; also called b-βγ; b-Gβ1γ2; not shown: 20 amino acid biotin acceptor peptide (BAP) fused to the N-terminus
T1 sequence (P54311 whole entry, chain 1 of 2, the tested form may be a part): as the sequence (P54311 whole entry L117A, chain 1 of 2) above, with A117L counted along it
T1 sequence (P63212 2-68, chain 2 of 2): as the sequence (P63212 2-68, chain 2 of 2, further chain) above
Nature of the experiment: phage ELISA on immobilized b-βγ. As to the method: Phage ELISA assays used to assess peptide binding to wild-type and mutant b-βγ were performed according to standard methods (Smrcka and Scott (2002) Methods Enzymol. 344:557-76). Briefly, 1 μg streptavidin was immobilized in the well of a […] overnight at 4° C. The wells were blocked with 100 μL of 2% bovine serum albumin (BSA) in Tris-buffered saline (TBS) for 1 hour at 4° C. followed by three washes of 1×TBS/0.5% TWEEN®. […] The wells were washed, followed by the addition of 1×10⁶ to 1×10¹⁰ phage particles and incubated at 4° C. for 3 hours. The wells were then washed six times with TBS/0.5% TWEEN® followed by addition of 40 μL of 1:5000 dilution of anti-M13 antibody (Pharmacia, Uppsala, Sweden) and incubated at room temperature for 1 hour. The wells were washed, followed by the addition of 40 μL of (2,2′-Azino-bis(3-ethylbenzthiazoline)-6-sulfonic acid (ABTS) and the […] reaction was monitored at 405 nm. Non-specific binding was subtracted for each reading.

Sequence of biotinylated Gβ1γ2 mutant Met101Ala (rat) (P54311 whole entry M101A, chain 1 of 2): as the sequence (P54311 whole entry L117A, chain 1 of 2) above, with M101A, A117L counted along it
Sequence of biotinylated Gβ1γ2 mutant Met101Ala (rat) (P63212 2-68, chain 2 of 2, further chain): as the sequence (P63212 2-68, chain 2 of 2, further chain) above
Sequence of biotinylated Gβ1γ2 mutant His311Ala (rat) (P54311 whole entry H311A, chain 1 of 2): as the sequence (P54311 whole entry L117A, chain 1 of 2) above, with A117L, H311A counted along it
Sequence of biotinylated Gβ1γ2 mutant His311Ala (rat) (P63212 2-68, chain 2 of 2, further chain): as the sequence (P63212 2-68, chain 2 of 2, further chain) above
Sequence of Fluorescein-labeled Gαi1 (P10824 2-354): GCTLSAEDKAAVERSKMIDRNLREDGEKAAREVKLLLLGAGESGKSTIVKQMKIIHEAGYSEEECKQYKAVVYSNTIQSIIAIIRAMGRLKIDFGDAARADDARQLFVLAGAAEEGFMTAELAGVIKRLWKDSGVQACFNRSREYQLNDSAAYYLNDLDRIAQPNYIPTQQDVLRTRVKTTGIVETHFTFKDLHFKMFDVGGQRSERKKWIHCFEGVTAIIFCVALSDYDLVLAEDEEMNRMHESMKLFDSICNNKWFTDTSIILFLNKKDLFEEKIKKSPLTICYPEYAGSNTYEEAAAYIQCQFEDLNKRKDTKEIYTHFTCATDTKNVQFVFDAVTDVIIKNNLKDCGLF

For the molecule Fluorescein-labeled Gαi1, the off-rate (koff) stood at 0.00197 s⁻¹ in experiment [1]; 0.00247 s⁻¹ in [2]; 0.00267 s⁻¹ in experiment [3]; 0.00602 s⁻¹ in experiment [4]; 0.0024 s⁻¹ in experiment [5]; 0.0019 s⁻¹ in experiment [6]. The koff in [7] was determined as 0.00203 s⁻¹; in experiment [8], 0.00502 s⁻¹; in experiment [9], 0.0048 s⁻¹; in experiment [10] it was 0.00258 s⁻¹; in experiment [11], 0.00302 s⁻¹; in [12] it was 0.00205 s⁻¹.
On to SIGKALFILGYPDYD [phage 3.14 (SIGKALFILGYPDYD)], for which the % of Wild-Type Signal stood at 50.2% in experiment [13]; 22.4% in experiment [14]; 14.4% in [15]; 66.5% in experiment [16]; 93.4% in experiment [17]; 2.1% in experiment [18]. In addition, the % of Wild-Type Signal in [19] worked out at 18.6%; in experiment [20] it was 26.8%; in experiment [21], 2.5%; in [22], 7.1%; in experiment [23], 66%; in experiment [24], 0.8%. The % of Wild-Type Signal in experiment [25] was found to be 24.7%. Further, the binding result in [26] was “binds”.
In the case of WCPPKAMTQLGIKAC (Group II) [phage C14 (WCPPKAMTQLGIKAC)], the % of Wild-Type Signal worked out at 3.9% in experiment [13]; 60% in experiment [14]; 3.6% in experiment [15]; 6.3% in experiment [16]; 6.1% in experiment [17]; 3.8% in experiment [18]. Besides, the % of Wild-Type Signal in experiment [19] was 3%; in experiment [20] it was 1.1%; in experiment [21], 9.9%; in experiment [22] it was 1.6%; in experiment [23], 10.1%; in experiment [24], 1.9%. The % of Wild-Type Signal in [25] turned out to be 3.6%. Moreover, in experiment [26], the binding result was “binds”.
For the molecule SCEKRLGVRSCT (Group III) [phage C5 (SCEKRLGVRSCT)], the % of Wild-Type Signal in experiment [13] turned out to be 76.5%; in experiment [14], 33.5%; in experiment [15] it was 45.7%; in experiment [16] it was 56.3%; in experiment [17], 58.7%; in experiment [18], 28.5%. In addition, the % of Wild-Type Signal in experiment [19] amounted to 5.6%; in experiment [20] it was 47.8%; in [21], 97.2%; in [22], 3.2%; in experiment [23] it was 39%; in [24], 16.7%. Further, the % of Wild-Type Signal in experiment [25] worked out at 73.8%. The binding result in experiment [26] was “binds”.
For the molecule SCEKRYGIEFCT (Group III) [phage C4 (SCEKRYGIEFCT)], the binding result in experiment [26] is recorded as “binds”.
With WCPPKLEQWYDGCA (Group IV) [phage C2 (WCPPKLEQWYDGCA)], the % of Wild-Type Signal amounted to 1.3% in experiment [13]; 0% in experiment [14]; 267% in [15]; 5.9% in experiment [16]; 11.7% in experiment [17]; 1.5% in experiment [18]. The % of Wild-Type Signal was -1.2% in experiment [19]; 157% in [20]; -0.7% in [21]; 4.7% in experiment [22]; -1% in experiment [23]; 4.5% in experiment [24]. In experiment [25], the % of Wild-Type Signal was -1.7%. The binding result in experiment [26] was “binds”.
Turning to SCEKRYGIEFCT [phage C4 (…)], the % of Wild-Type Signal is 1.4% in experiment [13]; 11.5% in experiment [14]; 51.3% in experiment [15]; 35.8% in experiment [16]; 36.5% in experiment [17]; 18.4% in [18]. Besides, the % of Wild-Type Signal in experiment [19] is -0.2%; in experiment [20], 61.2%; in experiment [21], 128%; in experiment [22] it was 1.7%; in [23] it was 67%; in experiment [24], 4.4%. Besides, the % of Wild-Type Signal in experiment [25] came to 7.6%.
On to SCGHGLKVQSTIGACA (Group II) [phage 3C (SCGHGLKVQSTIGACA)], for which the % of Wild-Type Signal came to 8.3% in [13]; 4.1% in experiment [14]; 35% in experiment [15]; 2% in [16]; 30.5% in experiment [17]; 10% in experiment [18]. For the same molecule, the % of Wild-Type Signal in [19] was 3.6%; in [20], -4.2%; in experiment [21], -5.7%; in experiment [22], -0.3%; in [23], -0.5%; in [24], 2.7%. Moreover, the % of Wild-Type Signal in experiment [25] came to 8.5%. The binding result in experiment [26] is on record as “binds”.
As to LCSKAYLLLGQTC (Group I) [phage 2F (LCSKAYLLLGQTC)], the % of Wild-Type Signal is 2.4% in [13]; 27.6% in experiment [14]; 2.4% in [15]; 0.6% in experiment [16]; 23.6% in experiment [17]; 2.1% in experiment [18]. For the same molecule, the % of Wild-Type Signal is -4.5% in [19]; 6% in [20]; 8.5% in [21]; -1.5% in experiment [22]; 32.6% in experiment [23]; 0.1% in experiment [24]. Also, in [25], the % of Wild-Type Signal was -2%. Moreover, the binding result in [26] is on record as “binds”.
For SCKRTKAQILLAPCT (Group I; also called Cl) [phage C1 (SCKRTKAQILLAPCT)], the % of Wild-Type Signal in [13] worked out at 2.8%; in experiment [14], 19.8%; in experiment [15], 1.4%; in [16] it was 2.3%; in experiment [17] it was 3%; in experiment [18] it was 5.2%. The % of Wild-Type Signal in experiment [19] was 0.1%; in experiment [20], 70.5%; in experiment [21], 4%; in [22], -0.3%; in [23], 1.2%; in experiment [24] it was 88%. Besides, in experiment [25], the % of Wild-Type Signal amounted to 0.3%. In addition, the binding result in [26] was “binds”.
